Experiments:
[1] = molecular target: T1, endogenous CD22 on Raji / Nalm6 cells (also on CD19 knock-out Raji cells) (human, UniProt P20273 20-847); experiment: FACS, scFv at 200 nM on Raji and Nalm6 cells, Alexa Fluor 647 anti-His detection, % positive cells
T1 construct: whole, on cells

[2] = molecular target: T2, full-length human CD19 on transfected K562 cells (human, UniProt P15391 20-556); experiment: FACS, scFv at 200 nM on CD19 K562 cells, Alexa Fluor 647 anti-His detection, % positive cells
T2 construct: whole, on cells; K562 clone transfected with pCMV6-Entry; also called CD19 K562; CD19/K562; not shown: flag or Myc tag at the C-terminus
T2 sequence (looked up): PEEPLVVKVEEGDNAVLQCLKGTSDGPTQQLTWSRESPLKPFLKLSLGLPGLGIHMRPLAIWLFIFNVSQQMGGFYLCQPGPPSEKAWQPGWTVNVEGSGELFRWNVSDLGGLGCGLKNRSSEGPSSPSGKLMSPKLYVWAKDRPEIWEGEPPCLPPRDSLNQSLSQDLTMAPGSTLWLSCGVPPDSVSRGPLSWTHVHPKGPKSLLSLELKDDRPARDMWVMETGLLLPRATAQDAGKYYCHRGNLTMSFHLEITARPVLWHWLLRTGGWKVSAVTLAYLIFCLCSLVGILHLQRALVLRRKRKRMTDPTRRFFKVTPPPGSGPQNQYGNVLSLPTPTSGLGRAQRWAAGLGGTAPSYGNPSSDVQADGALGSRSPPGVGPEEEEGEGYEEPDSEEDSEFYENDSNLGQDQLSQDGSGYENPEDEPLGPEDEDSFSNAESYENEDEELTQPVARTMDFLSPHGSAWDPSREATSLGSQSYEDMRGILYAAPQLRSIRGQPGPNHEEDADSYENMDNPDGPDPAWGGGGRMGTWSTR
Description: Cells were spun down at 1300 rpm for 5 minutes at 4° C. to remove unbound antibodies. Cells were then washed once with 200 iaL of PBS per well. […] Samples were then spun down at 1300 rpm for 5 minutes at 4° C. and washed twice with 200uL of 1×PBS per well. The resultant samples were reconstituted in 200 uL of 1×PBS and read on Attune™ NxT Flow Cytometer.

[3] = molecular target: T3, HIS tagged human CD19 recombinant protein (human, UniProt P15391 20-291, limits assumed); experiment: ELISA, His-tagged CD19 coated at 2 µg/mL, anti-hFc HRP detection
T3 construct: also called rhCD19; human CD19-HIS tagged protein; not shown: His tag
T3 sequence (looked up): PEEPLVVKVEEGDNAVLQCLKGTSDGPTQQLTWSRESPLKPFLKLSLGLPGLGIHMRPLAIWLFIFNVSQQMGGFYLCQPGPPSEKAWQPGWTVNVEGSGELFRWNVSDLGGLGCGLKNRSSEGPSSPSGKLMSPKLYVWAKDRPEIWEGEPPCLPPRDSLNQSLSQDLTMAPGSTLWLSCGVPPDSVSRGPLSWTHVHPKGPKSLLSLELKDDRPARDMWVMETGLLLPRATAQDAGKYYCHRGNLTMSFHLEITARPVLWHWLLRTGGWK
Description: (§1) Briefly, 384 well plate was immobilized with HIS tagged human CD19 or CD22 recombinant protein at final concentration of 2 μg/mL in 1×PBS in total volume of 25μL per well. The plate was incubated overnight at 4° C. followed by blocking with 80μL of superblock per well for 1 hour. […] CD19 or CD22 binding was detected by adding 25 μL of anti-hFc HRP diluted at 1:5000 in 1×PBST. In between each step, the plate was washed 3 times with 1×PBST in a plate washer. The plate was then developed with 20 μL of TMB substrate for 5 mins and stopped by adding 20 μL of 2 N sulfuric acid. The plate was read at OD450 nm (BIOTEK plate reader) and data plotted using GraphPad Prism® 8.1 software. […]

[4] = molecular target: T3, HIS tagged human CD19 recombinant …; experiment: SPR Biacore T200, Fc fusion captured on Protein A chip, His-tagged CD19 as analyte
Description: (§2) The assay was run using Biacore™ T200 control software version 2.0. For each cycle, 1 μg/mL of Fc-fusion protein was captured for 60 seconds at flow rate of 10 ul/min on flow cell 2 in 1×HBSP buffer on Protein A sensor chip. 2-fold serial human CD19 or CD22-HIS tagged protein was injected onto both reference flow cell 1 and Fc fusion protein captured flow cell 2 for 150 seconds at flow rate of 30 μl/mins followed by wash for 300 seconds. The flow cells were then regenerated with Glycine pH2 for 60 seconds at flow rate of 30 ul/mins. 8 concentration points from 100-0 nM was assayed per Fc fusion in a 96 well plate. The kinetics of Anti-CD19, CD22, CD22-CD19 binding to CD19 or CD22 protein was analyzed using Biacore™ T200 evaluation software version 3.0. The specific binding response unit was derived from subtraction of binding to reference flow cell-1 from Fc fusion protein captured flow cell-2.

[5] = molecular target: T4, endogenous CD19 on Raji / Nalm6 cells (also on CD22 knock-out Raji cells) (human, UniProt P15391 20-556); experiment: FACS, scFv-Fc fusion on CD22 knock-out Raji cells (which keep CD19)
T4 construct: whole, on cells
T4 sequence (looked up): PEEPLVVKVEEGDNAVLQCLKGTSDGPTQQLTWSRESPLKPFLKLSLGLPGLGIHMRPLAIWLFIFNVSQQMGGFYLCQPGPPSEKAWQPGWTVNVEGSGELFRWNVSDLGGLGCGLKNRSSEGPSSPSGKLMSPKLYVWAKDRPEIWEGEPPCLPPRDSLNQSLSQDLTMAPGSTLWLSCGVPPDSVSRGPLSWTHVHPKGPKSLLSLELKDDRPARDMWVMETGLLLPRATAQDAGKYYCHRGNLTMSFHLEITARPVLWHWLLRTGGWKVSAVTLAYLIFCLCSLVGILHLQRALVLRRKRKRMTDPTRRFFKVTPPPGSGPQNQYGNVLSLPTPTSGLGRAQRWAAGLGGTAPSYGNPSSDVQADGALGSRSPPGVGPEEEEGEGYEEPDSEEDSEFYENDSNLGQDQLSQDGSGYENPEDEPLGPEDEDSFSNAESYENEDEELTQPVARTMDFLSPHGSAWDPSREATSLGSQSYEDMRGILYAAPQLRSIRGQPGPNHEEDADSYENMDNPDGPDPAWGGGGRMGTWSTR

[6] = molecular target: T5, HIS tagged human CD22 recombinant protein (human, UniProt P20273 20-687, limits assumed); experiment: ELISA, His-tagged CD22 coated at 2 µg/mL, anti-hFc HRP detection
T5 construct: also called rhCD22; human CD22-HIS tagged protein; not shown: His tag
Description: as §1

[7] = molecular target: T3, HIS tagged human CD19 recombinant …; experiment: ELISA, plate coated with His-tagged human CD19 at 2 ug/mL, anti-hFc HRP detection
Description: as §1

[8] = molecular target: T5, HIS tagged human CD22 recombinant …; experiment: SPR Biacore T200, Fc fusion captured on Protein A chip, His-tagged CD22 as analyte
Description: as §2

[9] = molecular target: HIS tagged human CD19 recombinant protein (human) (UniProt P15391); experiment: SPR Biacore T200, Fc fusion captured on Protein A chip, His-tagged CD19 as analyte
[10] = molecular target: HIS tagged human CD19 recombinant protein (human) (UniProt P15391); experiment: ELISA, His-tagged CD19 coated at 2 µg/mL, anti-hFc HRP detection
[11] = molecular target: HIS tagged human CD22 recombinant protein (human) (UniProt P20273); experiment: SPR Biacore T200, Fc fusion captured on Protein A chip, His-tagged CD22 as analyte
[12] = molecular target: HIS tagged human CD22 recombinant protein (human) (UniProt P20273); experiment: ELISA, His-tagged CD22 coated at 2 µg/mL, anti-hFc HRP detection

B1: EPC-001-2 (scFv)
scFv (VH-linker-VL): QVQLVQSGAEVKRPGASVKVSCKASGYTFTSYGISWVRQAPGQGLEWMGWISAYNGNTNYAQKLQGRVTMTTDTSTSTAYMELRSLRSDDTAVYYCARDPGIAVAGTVDYWGQGTLVTVSSGGGGSGGGGSGGGGSEIVMTQSPATLSVSPGEGVTLSCRASQSVSSNLAWYQQRPGQAPRLLIYGASIKATDVPDRFSGGGSGTDFTLSISNVQSEDFAVYYCQQYHTWTPVTFGGGTKVEIK
notes: also called anti-CD22 monospecific scFv; parental anti-CD22 scFv
binding result [1]: binds
binding result [2]: no binding (tested: 200 nM)

B2: anti-CD19 scFv-Fc (Fc fusion, not shown: a dimerising Fc or GST)
chain: QVQLQQWGAGLLKPSETLSLTCAVYGGSFSGYYWTWIRQPPGKGLEWIGEINHGGSSNYNPSLKSRVTISVDTSKKQFSLNLNSVTAADTAVYYCARGLGYRSGWYEVENAFDIWGQGTMVTVSSGGGGSGGGGSGGGGSQPVLTQPPSVSVAPGQTARITCGGNKIESRSVHWYQQKPGQAPVLVVYDDGARPSGIPERLSGSNSGDTATLTISRVEPGDEADYYCQVWDGSSVIFGGGTKLTVL
notes: also called anti-CD19-Fc
EC50 [3]: 0.0094 nM
Kd [4]: 3.75 nM
koff [4]: 0.000223 s⁻¹
kon [4]: 59400 M⁻¹ s⁻¹

B3: anti-CD22 scFv-Fc (Fc fusion, not shown: a dimerising Fc or GST)
chain: EVQLVQSGAEVKKPGASVKVSCKASGYTFTSYGISWVRQAPGQGLEWMGWISAYNGNTNYAQKLQGRVTMTTDTSTSTAYMELRSLRSDDTAVYYCARDYGDPSGDDYWGQGTLVTVSSGGGGSGGGGSGGGGSEIVLTQSPATLSVSPGEGVTLSCRASQSVSSNLAWYQQRPGQAPRLLIYGASIKATDVPDRFSGGGSGTDFTLSISNLQSEDFAVYYCQQYHTWPPVTFGGGTKVEIK
notes: also called Anti-CD22-Fc
binding result [5]: no binding
EC50 [6]: 0.043 nM
binding result [7]: no binding (tested: 25 nM)
Kd [8]: 1.44 nM
koff [8]: 0.000177 s⁻¹
kon [8]: 122000 M⁻¹ s⁻¹

B4: Anti-CD22scFv-CD19scFv-Fc (bispecific antibody, part only; not given: Fc and inter-scFv linker, not shown: a dimerising Fc or GST)
chain, part: EVQLVQSGAEVKKPGASVKVSCKASGYTFTSYGISWVRQAPGQGLEWMGWISAYNGNTNYAQKLQGRVTMTTDTSTSTAYMELRSLRSDDTAVYYCARDYGDPSGDDYWGQGTLVTVSSGGGGSGGGGSGGGGSEIVLTQSPATLSVSPGEGVTLSCRASQSVSSNLAWYQQRPGQAPRLLIYGASIKATDVPDRFSGGGSGTDFTLSISNLQSEDFAVYYCQQYHTWPPVTFGGGTKVEIKQVQLQQWGAGLLKPSETLSLTCAVYGGSFSGYYWTWIRQPPGKGLEWIGEINHGGSSNYNPSLKSRVTISVDTSKKQFSLNLNSVTAADTAVYYCARGLGYRSGWYEVENAFDIWGQGTMVTVSSGGGGSGGGGSGGGGSQPVLTQPPSVSVAPGQTARITCGGNKIESRSVHWYQQKPGQAPVLVVYDDGARPSGIPERLSGSNSGDTATLTISRVEPGDEADYYCQVWDGSSVIFGGGTKLTVL
Kd [9]: 4.37 nM
koff [9]: 0.00025 s⁻¹
kon [9]: 57200 M⁻¹ s⁻¹
EC50 [10]: 0.052 nM
Kd [11]: 3.37 nM
koff [11]: 0.000266 s⁻¹
kon [11]: 79000 M⁻¹ s⁻¹
EC50 [12]: 0.189 nM

From patent publication US20240082402A1 (ELPIS BIOPHARMACEUTICALS, published 2024)
